From patent publication US20150093336A1 (VIB VZW, published 2015)

T1: Recombinant human MMR (R&D systems) (human, UniProt P22897 19-1383)
T1 construct: Antigen of the PE-ELISA and the SPR; also called hMMR; recombinant hMMR
T1 sequence: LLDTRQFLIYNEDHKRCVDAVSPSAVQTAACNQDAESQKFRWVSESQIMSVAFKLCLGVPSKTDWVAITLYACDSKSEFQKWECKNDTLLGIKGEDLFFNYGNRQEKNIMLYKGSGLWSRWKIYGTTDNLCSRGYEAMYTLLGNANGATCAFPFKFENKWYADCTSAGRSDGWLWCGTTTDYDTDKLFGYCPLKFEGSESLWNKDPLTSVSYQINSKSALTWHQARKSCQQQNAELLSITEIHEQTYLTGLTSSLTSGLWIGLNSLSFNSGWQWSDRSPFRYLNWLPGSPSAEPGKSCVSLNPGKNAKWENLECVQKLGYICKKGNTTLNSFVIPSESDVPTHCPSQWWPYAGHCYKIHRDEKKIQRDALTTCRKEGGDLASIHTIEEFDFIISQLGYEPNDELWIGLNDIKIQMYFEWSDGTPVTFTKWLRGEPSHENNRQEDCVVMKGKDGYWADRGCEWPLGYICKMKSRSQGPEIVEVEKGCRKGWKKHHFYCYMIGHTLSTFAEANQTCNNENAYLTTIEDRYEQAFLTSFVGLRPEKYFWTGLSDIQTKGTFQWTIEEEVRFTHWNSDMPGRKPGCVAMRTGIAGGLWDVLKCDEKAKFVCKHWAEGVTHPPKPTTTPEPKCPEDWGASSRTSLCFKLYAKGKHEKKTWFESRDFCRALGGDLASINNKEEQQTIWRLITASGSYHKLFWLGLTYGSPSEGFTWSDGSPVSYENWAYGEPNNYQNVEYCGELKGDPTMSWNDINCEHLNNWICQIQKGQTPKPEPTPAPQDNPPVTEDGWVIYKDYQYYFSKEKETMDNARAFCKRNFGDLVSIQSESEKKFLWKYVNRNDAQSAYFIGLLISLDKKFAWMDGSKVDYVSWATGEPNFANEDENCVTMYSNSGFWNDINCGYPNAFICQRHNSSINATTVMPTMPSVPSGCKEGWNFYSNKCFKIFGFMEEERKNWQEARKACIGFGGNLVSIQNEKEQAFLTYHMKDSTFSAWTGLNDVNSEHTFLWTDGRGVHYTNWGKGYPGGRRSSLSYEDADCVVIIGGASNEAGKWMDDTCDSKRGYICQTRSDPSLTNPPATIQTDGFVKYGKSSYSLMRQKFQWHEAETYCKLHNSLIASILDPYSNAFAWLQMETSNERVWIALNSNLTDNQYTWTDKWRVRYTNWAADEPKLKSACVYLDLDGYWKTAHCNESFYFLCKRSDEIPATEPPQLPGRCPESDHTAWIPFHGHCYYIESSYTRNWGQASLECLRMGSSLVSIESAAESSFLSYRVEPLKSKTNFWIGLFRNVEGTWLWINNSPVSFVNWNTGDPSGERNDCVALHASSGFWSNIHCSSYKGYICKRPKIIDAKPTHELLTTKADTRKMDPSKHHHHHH

T2: Recombinant mouse MMR (R&D systems) (mouse, UniProt Q61830 20-1388)
T2 construct: Antigen of the PE-ELISA and the SPR; also called mMMR; recombinant mMMR
T2 sequence: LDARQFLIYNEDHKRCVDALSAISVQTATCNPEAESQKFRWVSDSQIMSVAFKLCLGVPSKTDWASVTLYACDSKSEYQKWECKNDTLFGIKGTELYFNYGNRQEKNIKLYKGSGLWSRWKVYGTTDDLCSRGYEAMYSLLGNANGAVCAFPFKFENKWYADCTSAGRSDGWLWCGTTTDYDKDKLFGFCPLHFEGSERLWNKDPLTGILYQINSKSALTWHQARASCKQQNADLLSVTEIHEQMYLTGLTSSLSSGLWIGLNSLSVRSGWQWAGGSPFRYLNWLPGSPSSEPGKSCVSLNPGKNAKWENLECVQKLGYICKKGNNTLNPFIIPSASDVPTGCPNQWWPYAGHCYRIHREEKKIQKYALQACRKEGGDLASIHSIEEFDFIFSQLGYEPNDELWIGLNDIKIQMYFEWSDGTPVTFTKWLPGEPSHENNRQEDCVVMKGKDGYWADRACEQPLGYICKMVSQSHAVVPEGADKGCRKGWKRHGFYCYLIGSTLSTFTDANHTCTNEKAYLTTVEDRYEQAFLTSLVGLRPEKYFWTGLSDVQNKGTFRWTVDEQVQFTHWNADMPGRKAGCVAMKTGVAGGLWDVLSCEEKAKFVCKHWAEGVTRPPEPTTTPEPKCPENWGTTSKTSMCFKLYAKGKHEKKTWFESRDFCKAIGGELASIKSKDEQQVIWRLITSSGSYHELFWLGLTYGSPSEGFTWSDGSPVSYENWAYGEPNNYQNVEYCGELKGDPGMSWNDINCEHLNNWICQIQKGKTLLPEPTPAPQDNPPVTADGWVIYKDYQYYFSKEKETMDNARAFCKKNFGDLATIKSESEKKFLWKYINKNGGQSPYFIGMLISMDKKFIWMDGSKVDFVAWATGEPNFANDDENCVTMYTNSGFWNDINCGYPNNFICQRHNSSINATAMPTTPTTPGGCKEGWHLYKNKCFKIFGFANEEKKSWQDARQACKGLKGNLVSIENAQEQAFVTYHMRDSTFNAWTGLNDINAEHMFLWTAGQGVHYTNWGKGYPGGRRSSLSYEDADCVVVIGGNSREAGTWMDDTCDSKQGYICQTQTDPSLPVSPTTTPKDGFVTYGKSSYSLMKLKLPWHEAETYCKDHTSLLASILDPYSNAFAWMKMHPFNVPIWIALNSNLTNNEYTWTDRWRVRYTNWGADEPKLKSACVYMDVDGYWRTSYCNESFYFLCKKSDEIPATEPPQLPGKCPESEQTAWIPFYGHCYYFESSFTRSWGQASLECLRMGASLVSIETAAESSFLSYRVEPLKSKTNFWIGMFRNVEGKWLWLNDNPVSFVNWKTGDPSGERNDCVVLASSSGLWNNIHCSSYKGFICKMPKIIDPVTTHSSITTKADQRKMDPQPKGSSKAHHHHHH


How the values were obtained:
[1] = target: T1, Recombinant human MMR (R&D systems); test: SPR, BIAcore T100; human MMR on CM5 chip, sdAb as analyte
Description: (§1) Affinity analysis was performed using a BIAcore™ T100 (GE Healthcare) with HEPES-buffered saline running buffer (10 mM HEPES with 0.15 M NaCl, 3.4 mM EDTA and 0.005% surfactant P20 at pH 7.4). MRR was immobilized on a CM5 chip in acetate buffer 50 mM (pH 5.0), resulting in 2100 RU MMR coated on the chip. A second channel on the same chip was activated/deactivated in a similar way and served as a negative control. The MMR sdAbs were used as analytes in eleven different concentrations, ranging from 1 to 2000 nM, at a flow rate of […]. Glycine-HCl 50 mM (pH 2.0) was used for elution. The kinetic and equilibrium parameters (kd, ka and KD) values were calculated from the combined sensogram of all concentrations using BIAcore™ T100 evaluation software 2.02 (GE Healthcare).
(§2) The binding characteristics and affinity of selected Nbs towards the recombinant hMMR and recombinant mMMR antigen was examined in further detail using surface plasmon resonance. A combined sensogram was recorded for each Nb (example for NbhmMMRm3.49 in FIG. 5) and the kinetic and equilibrium parameters (kd, ka and KD) values were calculated (Table 4 and Table 5). Most but not all results on binding to mouse or human rMMR obtained via this SPR analysis are in agreement with the results obtained by PE-ELISA.

[2] = target: T2, Recombinant mouse MMR (R&D systems); test: SPR, BIAcore T100; mouse MMR on CM5 chip, sdAb as analyte
Description: as §1, §2

Binder	Kd [1] [µM]	koff [1] [s⁻¹]	kon [1] [M⁻¹ s⁻¹]	binding result [2]	Kd [2] [µM]	koff [2] [s⁻¹]	kon [2] [M⁻¹ s⁻¹]
NbhMMRm12.6 (VHH, Produced from pMECS with C-terminal HA and 6xHis tag) VHH: QVQLQESGGGLVQPGGSLRLSCVVSGSFLSINHMGWYRQVSGEQRELVAAITSGGSTNYADSVKGRFTISRDSAKNTVYLQMNSLKPEDTAVYYCNADALTMLPPFDFWGQGTQVTVSS	0.0082	0.0012	150000	no binding (tested: analyte 1 to 2000 nM)	–	–	–
NbhMMRm1.33 (VHH, Produced from pMECS in E. coli WK6 with C-terminal HA and 6xHis tag; also called NbMMRm1.33) VHH: QVQLQESGGGLVQPGGSLRLSCAASGFTLDNYTVAWFRQAPGKEREGVSCISSSGGSTNYADSVKGRFTISRDNSKKSVYLQMNSLKPEDTAIYTCAAERAPPYYSGYYFFDSTCVAASYDYWGQGTQVTVSS	0.0077	0.0015	200000	no binding (tested: analyte 1 to 2000 nM)	–	–	–
NbhMMRm11.5 (VHH, Produced from pMECS with C-terminal HA and 6xHis tag) VHH: QVQLQESGGGLVQPGGSLMLSCAASGNIFTINRMGWYRQAPGKQRELVAAITSGGNTNYADSVKGRFTISRDNAKNTVYLQMNSLKPEDTAVYYCNAAIVTMTSPYSDYWGQGTQVTVSS	0.055	0.022	400000	–	0.12	0.019	150000
NbhmMMRm19.52 (VHH, Produced from pMECS with C-terminal HA and 6xHis tag) VHH: QVQLQESGGGLVQAGGSLRLSCLASGDTFSNYVMAWFRQAPGKEREIVAAIRLSGARYVPDSVKGRFTISRDNAKNAMYLQMTSLKPEDTARYYCAAGHTWGQYAYWGQGTQVTVSS	1.7	0.01	6000	–	8.5	0.032	3700
NbhmMMRm14.4 (VHH, Produced from pMECS with C-terminal HA and 6xHis tag) VHH: QVQLQESGGGLVQAGDSLRLSCAASGRTFSINYMGWYRQAPGKQRELVAAITSGSGSTNYADSVKGRFTISRDNAKNTMYLQMNSLKPEDTAVYYCNADMDSSLSGGYVDVWGQGTQVTVSS	0.01	0.0014	140000	–	0.068	0.0023	33000
NbhmMMRm14.93 (VHH, Produced from pMECS with C-terminal HA and 6xHis tag) VHH: QVQLQESGGGLVQAGDSLRLSCAASGRTFSINYMGWYRQAPGKQRELVAAITSGSGSTNYADSVKGRFTISRDNAKKTMYLQMNSLKPEDTAVYYCNADMDSSLSGGYVDVWGQGTQVTVSS	0.013	0.0012	95000	–	0.074	0.0021	29000
NbhMMRm2.15 (VHH, Produced from pMECS with C-terminal HA and 6xHis tag) VHH: QVQLQESGGGLVQPGESLRLSCKLSGFTLDYYDIGWFRQAPGKEREGVSCISSIGGSANYADSVKGRFTISRDNVKNTVYLQMNSLKPEDTAIYYCAAEAQTPYNDGDCTRASYDYWGQGIQVTVSS	0.0086	0.0013	150000	no binding (tested: analyte 1 to 2000 nM)	–	–	–
NbhMMRm16.95 (VHH, Produced from pMECS with C-terminal HA and 6xHis tag) VHH: QVQLQESGGGLVQPGGSLGLSCAASGRIASISAMGWYRQAPGKQRELVAAITGSGRTNYADSVKGRFTISRDNAKNTVYLQMNSLKPEDTAVYYCNLLMVDYGLGLGTDYWGQGTQVTVSS	0.021	0.0014	66000	no binding (tested: analyte 1 to 2000 nM)	–	–	–
NbhMMRm10.19 (VHH, Produced from pMECS with C-terminal HA and 6xHis tag) VHH: QVQLQESGGGLVQPGGSLKLSCAASGSIFSIKTMGWYRQAPGKQRELVAAITSGGSTNYADSVKGRFTISRDNAKNTVYLQMNSLKPEDTAVYYCNADGVVAWDQPYDNYWGQGTQVTVSS	0.05	0.031	750000	–	0.25	0.21	840000
NbhmMMRm10.79 (VHH, Produced from pMECS with C-terminal HA and 6xHis tag) VHH: QVQLQESGGGLVQPGGSLKLSCAASGSIFSIKTMGWYRQAPGKQRELVAAVSSGGSTNYADSVKGRFTISRDNAKNAVYLQMNSLKPEDTAVYYCNADGVVAWDQPYDNYWGQGTQVTVSS	0.42	0.0066	16000	–	0.039	0.0042	110000
NbhmMMRm20.52 (VHH, Produced from pMECS with C-terminal HA and 6xHis tag) VHH: QVQLQESGGGLVQAGGSLRLSCAASGRIFSAYAMGWFRQAPGKEREFVAAISRSGDSTDYADSVKGRFTISRDSAKNMVYLQMNSLKPEDTALYHCAARTVSAPPSAAWGYGYWGQGTQVTVSS	0.26	0.13	510000	–	0.0013	0.002	1.6e+06
